PMC5300068, “Flexibility in Mannan-Binding Lectin-Associated Serine Proteases-1 and -2 Provides Insight on Lectin Pathway Activation” (Structure(London, England:1993), 2017)

Target: the molecule itself
Test: AUC; sedimentation velocity, 50,000 rpm, absorbance optics, c(s) analysis; physiological ionic strength, buffers with Ca2+ or EDTA; 0.8-2.2 uM for full-length MASPs; dimer to monomers

B1: rat MASP-2 CUB1-EGF-CUB2 (MASP-2 3D) (domain or fragment)
chain: SKWPEPVFGRLVSLGFPEKYGNHQDRSWTLTAPPGFRLRLYFTHFNLELSYRCEYDFVKLTSGTKVLATLCGQESTDTERAPGNDTFYSLGPSLKVTFHSDYSNEKPFTGFEAFYAAEDVDECRTSLGDSVPCDHYCHNYLGGYYCSCRVGYILHQNKHTCSALCSGQVFTGRSGFLSSPEYPQPYPKLSSCAYNIRLEEGFSITLDFVESFDVEMHPEAQCPYDSLKIQTDKREYGPFCGKTLPPRIETDSNKVTITFTTDESGNHTGWKIHYTSTAQP
modifications: N-glycosylated (glycosylation sites shown in Figure 1)
notes: Homodimer; production details are in the Supplemental Information; source: Chinese hamster ovary cells, purified (gel filtration, Superdex 200 16/60); not shown: His6, C-terminal, kept
- stoichiometry N: 2
